Test results from patent publication US20230416410A1 (ZOETIS SERVICES, published 2023).
Residue numbers refer to the chain shown, from its start.

T1: CTLA4 Fc bIgG3aSAS (canine; bovine, UniProt Q9XSI1 36-161, limits assumed)
T1 construct: No linker
T1 sequence: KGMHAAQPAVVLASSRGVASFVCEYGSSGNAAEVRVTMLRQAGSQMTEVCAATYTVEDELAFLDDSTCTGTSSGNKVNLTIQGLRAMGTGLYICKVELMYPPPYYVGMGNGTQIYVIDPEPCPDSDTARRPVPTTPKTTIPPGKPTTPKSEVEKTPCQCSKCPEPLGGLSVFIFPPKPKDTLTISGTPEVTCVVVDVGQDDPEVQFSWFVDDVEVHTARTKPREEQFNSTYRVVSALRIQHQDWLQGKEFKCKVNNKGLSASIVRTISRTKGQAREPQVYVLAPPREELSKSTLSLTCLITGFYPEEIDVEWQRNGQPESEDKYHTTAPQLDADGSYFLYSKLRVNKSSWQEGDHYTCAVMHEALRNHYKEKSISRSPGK

T2: CTLA4 Fc bIgG3aWinSAS (canine; bovine, UniProt Q9XSI1 36-161, limits assumed)
T2 construct: No linker
T2 sequence: T1 sequence with P165A, L166A, G168A

T3: CTLA4 Fc bIgG3aWin (canine; bovine, UniProt Q9XSI1 36-161, limits assumed)
T3 construct: No linker
T3 sequence: T1 sequence with P165A, L166A, G168A, S260P, S262P

T4: CTLA4 Fc bIgG3a (canine; bovine, UniProt Q9XSI1 36-161, limits assumed)
T4 construct: No linker; also called bIgG3a wildtype; CTLA4 Fc bIgG3a wildtype
T4 sequence: T1 sequence with S260P, S262P

T5: CTLA4 Fc bIgG1aWinSS (canine; bovine, UniProt Q9XSI1 36-161, limits assumed)
T5 construct: No linker
T5 sequence: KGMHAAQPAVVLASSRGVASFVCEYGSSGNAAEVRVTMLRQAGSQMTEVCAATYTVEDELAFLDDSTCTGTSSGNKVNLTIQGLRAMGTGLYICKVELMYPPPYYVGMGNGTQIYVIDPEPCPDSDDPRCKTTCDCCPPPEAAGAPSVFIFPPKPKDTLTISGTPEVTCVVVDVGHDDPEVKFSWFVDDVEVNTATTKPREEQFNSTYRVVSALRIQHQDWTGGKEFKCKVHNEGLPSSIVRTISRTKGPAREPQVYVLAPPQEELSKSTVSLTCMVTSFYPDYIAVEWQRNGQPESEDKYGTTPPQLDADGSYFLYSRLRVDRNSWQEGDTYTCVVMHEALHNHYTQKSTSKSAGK

B1: recombinant bovine FcgR2 (receptor)
chain: KPDLPKAVVTIQPAWINVLREDHVTLTCQGTSFSAGNLTTWFHNGSSIHTQKQPSYSFRAGSNDSGSYRCQREQTSLSDPVHLDVISDWLLLQTPSLVFQEGEPIMLRCHSWRNQPLNKITFYQDRKSKIFSYQRTNFSIPRANLSHSGQYHCTAFIGKMLHSSQPVNITVQESSSSGPSSMTHHHHHHAGLNDIFEAQKIEWHE
modifications: biotin on the BAP tag (BirA)
notes: also called bFcgR2; bFcgRII
B2: recombinant bovine FcgR3 (receptor)
chain: DTQTADPSKAVVLLDPQWNHVLTNDRVTLKCQGDYPVEDNSTKWWHNGTLISSQTPSYFIADVKVQDSGEYKCQTGLSAPSDPVKLEVHVGWLLLQVAQRVVNVGKPIRLKCHSWKKTPVAKVQYFRNGRGKKYSHGNSDFHIPEAKLEHSGSYFCRGIIGSKNESSESVQITVQAPETLQTVSSFFLPWHQHHHHHHAGLNDIFEAQKIEWHE
modifications: biotin on the BAP tag (BirA)
notes: also called bFcgR3; bFcgRIII

Tests used:
Assay in all cases: SPR Biacore, biotinylated receptor on SA sensor, pH 7.4, 15 C
CTLA4 Fc bIgG3aSAS = molecular target: T1, CTLA4 Fc bIgG3aSAS
Method: (§1) A Biacore SPR binding assay was designed to test the affinity of bovine IgG subclasses to bFcgR1, bFcgR2 and bFcgR3. All reported KD's were measured by Biacore (Cytiva, Marlborough, MA, USA) using series S SA sensor. Biotinylated-bovine FcgR1, R2 and R3 were captured on the sensor surface using a modified SA capture method to reach the desired surface density. 10 mM HEPES, 150 mM NaCl, 3 mM EDTA, 0.05% v/v surfactant P20, pH7.4 buffer was used as the running and titration buffer. Various concentrations of bovine CTLA4-Fc fusions or mAbs were titrated and flowed over the receptor surface and affinities were determined using Biacore T200 Evaluation software (Cytiva, Marlborough, MA, USA) with 1:1 binding model. The method of double referencing has been applied where the reference flow cell was subtracted from the flow cell containing immobilized receptors and blank runs containing buffer only were subtracted out from all runs. Flow cells were regenerated using 10 mM Glycine pH1.5. Runs were performed at 15° C.
(§2) Biacore methods for bFcgR1, R2, and R3 were performed as described in Examples above. […] Although the two allotypes have different KDs for bFcgR2 and bFcgR3, both wildtype allotypes do bind. All of the mutations, bIgG3Win, bIgG3WinSAS, bIgG3SAS and bIgG3SAP for both the a and b allotypes knocked down binding to bFcgR1, bFcgR2 and bFcgR3 to negligible affinities. Thus, for knocking out receptor binding, the two allotypes compare similarly.

CTLA4 Fc bIgG3aWinSAS = molecular target: T2, CTLA4 Fc bIgG3aWinSAS
Method: as §1, §2

CTLA4 Fc bIgG3aWin = molecular target: T3, CTLA4 Fc bIgG3aWin
Method: as §1, §2

CTLA4 Fc bIgG3a = molecular target: T4, CTLA4 Fc bIgG3a
Method: as §1, §2

CTLA4 Fc bIgG1aWinSS = molecular target: T5, CTLA4 Fc bIgG1aWinSS
Method: as §1
The ability to knock out binding to bovine Fc gamma receptors was evaluated by comparing SPR Biacore bFcgR affinity of bIgG1a and bIgG1b wildtype Fc to the bIgG1a and bIgG1b mutations, described above. All mutations made to bIgG1 are identical for the a and b allotypes. Biacore methods for bFcgR1, R2, and R3 were performed as described in Example 1.

| binding result (CTLA4 Fc bIgG3aSAS) | binding result (CTLA4 Fc bIgG3aWinSAS) | binding result (CTLA4 Fc bIgG3aWin) | Kd (CTLA4 Fc bIgG3a) [nM] | Kd (CTLA4 Fc bIgG1aWinSS) [nM] | Binder |
| --- | --- | --- | --- | --- | --- |
| no binding | no binding | no binding | 68.9 | 52.5 | B1 |
| – | – | no binding | 7170 | – | B2 |
